Source: publication PMC10716038, “Talin and kindlin use integrin tail allostery and direct binding to activate integrins” (Nature Structural & Molecular Biology, 2023)
Residue numbers refer to the chain shown, from its start. Names and notes keep the numbering of the source. No end group written: not given here.

T1: talin-1 head domain (THD1) (UniProt P26039 1-405)
T1 chain: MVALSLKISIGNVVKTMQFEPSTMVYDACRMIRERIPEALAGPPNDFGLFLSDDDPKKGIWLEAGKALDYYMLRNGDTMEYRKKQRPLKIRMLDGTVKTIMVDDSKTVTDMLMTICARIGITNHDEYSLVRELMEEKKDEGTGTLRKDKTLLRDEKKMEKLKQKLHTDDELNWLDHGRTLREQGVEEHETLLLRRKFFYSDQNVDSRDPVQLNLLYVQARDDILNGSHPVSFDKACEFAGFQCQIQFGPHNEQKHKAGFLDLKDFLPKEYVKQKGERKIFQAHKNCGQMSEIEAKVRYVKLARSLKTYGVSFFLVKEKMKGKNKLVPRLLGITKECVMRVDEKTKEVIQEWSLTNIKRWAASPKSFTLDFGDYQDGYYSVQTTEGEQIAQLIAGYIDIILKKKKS

T2: talin-2 head domain (THD2) (UniProt Q71LX4 1-408)
T2 chain: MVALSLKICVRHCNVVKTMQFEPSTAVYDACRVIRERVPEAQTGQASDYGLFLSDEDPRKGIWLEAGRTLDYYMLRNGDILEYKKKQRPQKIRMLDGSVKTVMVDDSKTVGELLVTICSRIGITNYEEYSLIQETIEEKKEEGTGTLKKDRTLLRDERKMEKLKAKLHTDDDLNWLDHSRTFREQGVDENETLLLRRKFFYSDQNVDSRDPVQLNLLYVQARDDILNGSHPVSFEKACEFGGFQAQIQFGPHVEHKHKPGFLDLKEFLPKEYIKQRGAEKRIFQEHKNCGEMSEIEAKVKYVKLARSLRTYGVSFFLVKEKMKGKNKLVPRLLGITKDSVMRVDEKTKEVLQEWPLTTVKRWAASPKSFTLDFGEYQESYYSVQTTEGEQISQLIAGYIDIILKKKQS

T3: TLN1-F3–ΔKIND2 fusion protein
T3 chain: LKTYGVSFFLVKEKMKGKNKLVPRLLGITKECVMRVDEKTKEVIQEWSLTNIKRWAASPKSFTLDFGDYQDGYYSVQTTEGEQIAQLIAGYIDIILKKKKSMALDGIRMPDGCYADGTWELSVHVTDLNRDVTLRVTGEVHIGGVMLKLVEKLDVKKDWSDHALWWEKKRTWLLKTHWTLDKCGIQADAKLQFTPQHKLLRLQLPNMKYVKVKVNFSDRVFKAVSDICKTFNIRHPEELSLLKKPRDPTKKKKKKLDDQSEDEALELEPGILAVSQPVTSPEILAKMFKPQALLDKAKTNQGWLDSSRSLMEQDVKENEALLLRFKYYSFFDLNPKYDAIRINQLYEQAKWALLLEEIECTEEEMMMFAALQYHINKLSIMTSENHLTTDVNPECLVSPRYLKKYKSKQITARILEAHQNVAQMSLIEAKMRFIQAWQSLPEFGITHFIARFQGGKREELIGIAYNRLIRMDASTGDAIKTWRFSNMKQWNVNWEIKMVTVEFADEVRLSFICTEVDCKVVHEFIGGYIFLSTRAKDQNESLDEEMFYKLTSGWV

T4: TLN1-F3–ΔKIND2^Y13A fusion protein
T4 chain: T3 chain with Y114A

T5: β1 transmembrane and cytoplasmic tail polypeptide (β1-TM–CT) in nanodiscs (UniProt P05556 726-798, biotin (biotin-maleimide))
T5 chain: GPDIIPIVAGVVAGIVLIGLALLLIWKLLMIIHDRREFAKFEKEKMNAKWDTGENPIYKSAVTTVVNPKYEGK

T6: α5-TM lacking the cytoplasmic domain (tailless α5-TM) in nanodiscs (UniProt P11688 993-1025, biotin (biotin-maleimide))
T6 chain: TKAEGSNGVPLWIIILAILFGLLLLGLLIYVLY

T7: β3 transmembrane and cytoplasmic tail polypeptide (β3-TM–CT) in nanodiscs (UniProt O54890 715-787, biotin (biotin-maleimide))
T7 chain: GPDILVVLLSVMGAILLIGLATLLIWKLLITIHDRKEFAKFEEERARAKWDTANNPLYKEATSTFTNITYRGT

T8: kindlin-2 (KIND2) (UniProt Q8CIB5 1-680)
T8 construct: kindlin-2 (KIND2) without the deletions of ΔKIND2; In FC-RDA a copy labelled with Alexa 647 (647–KIND2) was the reporter; also called 647–KIND2; source: E. coli Rosetta, purified (IMAC, SEC); not shown: His10, N-terminal, cleaved; SUMO, N-terminal, cleaved
T8 sequence (looked up): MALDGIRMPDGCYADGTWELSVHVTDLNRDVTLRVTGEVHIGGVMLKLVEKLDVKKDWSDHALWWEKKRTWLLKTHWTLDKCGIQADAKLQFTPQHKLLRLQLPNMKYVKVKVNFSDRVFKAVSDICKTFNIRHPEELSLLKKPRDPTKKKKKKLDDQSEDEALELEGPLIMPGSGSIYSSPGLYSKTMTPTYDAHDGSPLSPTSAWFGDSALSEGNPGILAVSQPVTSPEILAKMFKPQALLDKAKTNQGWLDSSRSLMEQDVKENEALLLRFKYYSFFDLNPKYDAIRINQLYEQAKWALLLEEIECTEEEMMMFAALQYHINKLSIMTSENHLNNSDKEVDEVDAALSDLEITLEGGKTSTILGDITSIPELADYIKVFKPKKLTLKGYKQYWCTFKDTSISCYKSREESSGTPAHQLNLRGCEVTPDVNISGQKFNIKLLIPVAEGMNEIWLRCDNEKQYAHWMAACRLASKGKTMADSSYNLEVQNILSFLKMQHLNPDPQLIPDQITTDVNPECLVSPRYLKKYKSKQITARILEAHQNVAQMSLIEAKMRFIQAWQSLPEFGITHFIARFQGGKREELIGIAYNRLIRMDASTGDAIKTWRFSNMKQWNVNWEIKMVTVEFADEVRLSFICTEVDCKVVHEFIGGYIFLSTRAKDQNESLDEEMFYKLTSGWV

B1: kindlin-2 (KIND2) (natural protein)
chain: T8 sequence (looked up)
B2: F3 domain of TLN1 (TLN1-F3) (domain or fragment, UniProt P26039 305-405, looked up)
chain: LKTYGVSFFLVKEKMKGKNKLVPRLLGITKECVMRVDEKTKEVIQEWSLTNIKRWAASPKSFTLDFGDYQDGYYSVQTTEGEQIAQLIAGYIDIILKKKKS
notes: Used unlabelled, 15N-labelled or partially deuterated in NMR; also called T1-F3; source: E. coli (DE3) Rosetta 2, purified (IMAC, SEC); not shown: His10, N-terminal, cleaved; SUMO, N-terminal, cleaved

Key:
[1] = target: B1; experiment: MST
[2] = target: T1, talin-1 head domain (THD1); experiment: MST
[3] = target: T2, talin-2 head domain (THD2); experiment: MST
[4] = target: B1; experiment: MST
[5] = target: B1; experiment: MST; apparent, with THD1
[6] = target: T3, TLN1-F3–ΔKIND2 fusion protein; experiment: MST; TLN1-F3 contribution
[7] = target: T4, TLN1-F3–ΔKIND2^Y13A fusion protein; experiment: MST; TLN1-F3 contribution
[8] = target: T1, talin-1 head domain (THD1); experiment: MST; apparent, with KIND2
[9] = target: T5, β1 transmembrane and cytoplasmic tail …; experiment: FACS; 10% PIP2 nanodiscs
[10] = target: T6, α5-TM lacking the cytoplasmic domain …; experiment: FACS; 10% PIP2 nanodiscs
[11] = target: T9, β1-TM–CT Y795A (KIND2-binding impaired) in nanodiscs (UniProt P09055 726-798, Y795A, biotin (biotin-maleimide)); experiment: FACS; 10% PIP2 nanodiscs
[12] = target: T10, β1-TM–CT Y783A (THD1-binding impaired) in nanodiscs (UniProt P09055 726-798, Y783A, biotin (biotin-maleimide)); experiment: FACS; 10% PIP2 nanodiscs
[13] = target: T7, β3 transmembrane and cytoplasmic tail …; experiment: FACS; 10% PIP2 nanodiscs
[14] = target: T5, β1 transmembrane and cytoplasmic tail …; experiment: FACS; 10% PIP3 nanodiscs
[15] = target: T6, α5-TM lacking the cytoplasmic domain …; experiment: FACS; 10% PIP3 nanodiscs
[16] = target: T9, β1-TM–CT Y795A (KIND2-binding impaired) …; experiment: FACS; 10% PIP3 nanodiscs
[17] = target: T10, β1-TM–CT Y783A (THD1-binding impaired) …; experiment: FACS; 10% PIP3 nanodiscs
[18] = target: T3, TLN1-F3–ΔKIND2 fusion protein; experiment: MST
[19] = target: T8, kindlin-2 (KIND2); experiment: NMR titration; 15N-labelled TLN1-F3 observed in the presence of β1-CT at saturating concentration (200 µM) with 75 µM KIND2 added; 298 K; conditions: both partners purified

Binder {ATTO 488}-KLLMIIHDRREFAKFEKEKMNAKWDTGENPIYKSAVTTVVNPKYEGK [ATTO 488-labelled β1-CT (488–β1-CT)] has a Kd [1] of 2900 nM, a Kd [2] of 140000 nM and a Kd [3] of 25000 nM. For the same binder, the Kd [4] was 3000 nM, the Kd [5] was 42000 nM and the Kd [6] was 25300 nM. For the same binder, the Kd [7] was 15700 nM and the Kd [8] was 153000 nM.

Binder B1 has an IC50 [9] of 120 nM, an IC50 [10] of 444 nM and an IC50 [11] of 370 nM. It also gave an IC50 [12] of 117 nM, an IC50 [13] of 95 nM and an IC50 [14] of 102 nM. The IC50 [15] was 471 nM, the IC50 [16] was 162 nM and the IC50 [17] was 255 nM.

{ATTO 488}-KLLMIIHDRREFAKFEKEKMNAKWDTGENPIAKSAVTTVVNPKYEGK [ATTO 488-labelled β1-CT^Y783A] gave a Kd [1] of 4900 nM and a Kd [18] of 4300 nM.

B2: binds [19].
